According to paper PMC5726920 (Nature chemical biology, 2017):

B1: human mitochondrial superoxide dismutase (enzyme)
chain: KHSLPDLPYDYGALEPHINAQIMQLHHSKHHAAYVNNLNVTEEKYQEALAKGDVTAQIALQPALKFNGGGHINHSIFWTNLSPNGGGEPKGELLEAIKRDFGSFDKFKEKLTAASVGVQGSGWGWLGFNKERGHLQIAACPNQDPLQGTTGLIPLLGIDVWEHAYYLQYKNVRPDYLKAIWNVINWENVTERYMACKK
B2: creatine kinase M from mouse heart (enzyme)
chain: not shown
B3: NAD(P)H-hydrate epimerase (enzyme)
chain: ASTVVKYLSQEEAQAVDQELFNEYQFSVDQLMELAGLSCATAIAKAYPPTSMSRSPPTVLVICGPGNNGGDGLVCARHLKLFGYEPTIYYPKRPNKPLFTALVTQCQKMDIPFLGEMPAEPMTIDELYELVVDAIFGFSFKGDVREPFHSILSVLKGLTVPIASIDIPSGWDVEKGNAGGIQPDLLISLTAPKKSATQFTGRYHYLGGRFVPPALEKKYQLNLPPYPDTECVYRLQ
B4: mitochondrial malate dehydrogenase (enzyme)
chain: AKVAVLGASGGIGQPLSLLLKNSPLVSRLTLYDIAHTPGVAADLSHIETKAAVKGYLGPEQLPDCLKGCDVVVIPAGVPRKPGMTRDDLFNTNATIVATLTAACAQHCPEAMICVIANPVNSTIPITAEVFKKHGVYNPNKIFGVTTLDIVRANTFVAELKGLDPARVNVPVIGGHAGKTIIPLISQCTPKVDFPQDQLTALTGRIQEAGTEVVKAKAGAGSATLSMAYAGARFVFSLVDAMNGKEGVVECSFVKSQETECTYFSTPLLLGKKGIEKNLGIGKVSSFEEKMISDAIPELKASIKKGEDFVKTLK
B5: 3-hydroxyisobutyrate dehydrogenase (enzyme)
chain: ASKTPVGFIGLGNMGNPMAKNLMKHGYPLILYDVFPDVCKEFKEAGEQVASSPAEVAEKADRIITMLPSSMNAVEVYSGANGILKKVKKGSLLIDSSTIDPSVSKELAKEVEKMGAVFMDAPVSGGVGAARSGNLTFMVGGVEDEFAAAQELLECMGSNVVYCGAVGTGQSAKICNNMLLAISMIGTAEAMNLGIRSGLDPKLLAKILNMSSGRCWSSDTYNPVPGVMHGVPSSNNYQGGFGTTLMAKDLGLAQDSATSTKTPILLGSLAHQIYRMMCSKGYSKKDFSSVFQYLREEEPF
B6: murine cytosolic aspartate aminotransferase (enzyme)
chain: MAPPSVFAQVPQAPPVLVFKLTADFRDDPDPRKVNLGVGAYRTDESQPWVLPVVRKVEQKIANDNSLNHEYLPILGLAEFRSCASRLVLGDNSLAIRENRVGGVQSLGGTGALRIGADFLGRWYNGTDNKNTPIYVSSPTWENHNAVFSAAGFKDIRPYCYWDAEKRGLDLQGFLNDLENAPEFSIFVLHACAHNPTGTDPTPEQWKQIAAVMQRRFLFPFFDSAYQGFASGDLEKDAWAIRYFVSEGFELFCAQSFSKNFGLYNERVGNLTVVGKESDSVLRVLSQMEKIVRITWSNPPAQGARIVAATLSDPELFKEWKGNVKTMADRILTMRSELRARLEALKTPGTWSHITEQIGMFSFTGLNPKQVEYLVNEKHIYLLPSGRINMCGLTTKNLDYVATSIHEAVTKIQ

Biological target: the molecule itself
Experiment: native MS

| Protein | stoichiometry N |
| --- | --- |
| B1 | 4 |
| B2 | 2 |
| B3 | 2 |
| B4 | 2 |
| B5 | 4 |
| B6 | 2 |
